Data: publication PMC5887438 (Nucleic Acids Research, 2018)

Molecular target: C. crescentus σ70 domain 2 (σ70_2, residues 128-487) (Caulobacter crescentus, UniProt P52324 127-486)
Test: crystal structure

Sequence of C. crescentus σ70 domain 2 (σ70_2, residues 128-487) (P52324 127-486): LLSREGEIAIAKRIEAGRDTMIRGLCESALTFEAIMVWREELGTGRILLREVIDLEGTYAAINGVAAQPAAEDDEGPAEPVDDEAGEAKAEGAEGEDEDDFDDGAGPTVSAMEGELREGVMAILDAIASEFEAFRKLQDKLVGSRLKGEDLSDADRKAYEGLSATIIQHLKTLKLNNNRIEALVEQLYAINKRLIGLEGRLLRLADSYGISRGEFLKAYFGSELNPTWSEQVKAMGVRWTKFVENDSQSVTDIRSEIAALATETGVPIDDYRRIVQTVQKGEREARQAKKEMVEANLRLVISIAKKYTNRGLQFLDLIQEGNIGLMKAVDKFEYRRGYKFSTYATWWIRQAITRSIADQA

B1: C. crescentus GcrA-SID (residues 88-173) (domain or fragment, Caulobacter crescentus, UniProt A0A0H3C9J4 88-173, looked up)
chain: VPVAAAPAPLPAFRHEEPGSATVLTLGAHMCKWPIGDPSSEGFTFCGRRSSEGPYCVEHARVAYQPQQTKKKSGGAELARSLRRYI
stoichiometry N: 1
